Data from patent US20030027251.

Biological target: bacteriophage λ cII protein (UniProt P03042)

Substance	fold induction of β-galactosidase (induced/uninduced), strain SYKD005; reference SYKD004 without plasmid ftsH: 21	fold induction of β-galactosidase, strain SYKD005	β-galactosidase level against arabinose used to induce FtsH, strain SYKD007	fold induction of β-galactosidase (induced/uninduced), strain SYKD006; reference SYKD004 without plasmid ftsH: 21	fold induction of β-galactosidase, strain SYKD006	β-galactosidase level against arabinose used to induce FtsH(E415A), strain SYKD008
E. coli FtsH	10 fold	the fold induction of β-galactosidase was reduced to half when cII was induced with IPTG in the presence of FtsH	in SYKD007 the level of β-galactosidase appeared to be directly correlated to the amount of arabinose used for induction	–	–	–
FtsH(E415A), protease-deficient mutant of FtsH	–	–	–	26 fold	This reduction in the expression of lacZ was not observed in the presence of FtsH (E415A)	inducing the strain SYKD008 at different concentrations of arabinose did not have any effect on the levels of β-galactosidase being produced
